Reference: paper PMC2813275

Biological target: GST-Nup153 (human wt Nup153) (human)
Assay: co-IP; competition: 200 ng P-rC with 200 ng GST-Nup153 and different concentrations of importin β together, 2 h at 37°C in transport buffer; anti-capsid beads; mAb414 blot

For “importin β (karyopherin) (from UniProt Q14974 1-876) (natural protein)”, the molar excess of importin β that prevented Nup153 binding to P-rC was > 150 fold.
